{"source": "patent US20200040088A1", "about": "(Kyowa Kirin, published 2020)", "key": {"[1]": {"molecular_target": "T1, Mouse IL-5Rα-Fc (R&D Systems Inc.) (mouse, UniProt P21183 18-339)", "T1 construct": "Bought reagent; not shown: Fc part", "T1 sequence (looked up)": "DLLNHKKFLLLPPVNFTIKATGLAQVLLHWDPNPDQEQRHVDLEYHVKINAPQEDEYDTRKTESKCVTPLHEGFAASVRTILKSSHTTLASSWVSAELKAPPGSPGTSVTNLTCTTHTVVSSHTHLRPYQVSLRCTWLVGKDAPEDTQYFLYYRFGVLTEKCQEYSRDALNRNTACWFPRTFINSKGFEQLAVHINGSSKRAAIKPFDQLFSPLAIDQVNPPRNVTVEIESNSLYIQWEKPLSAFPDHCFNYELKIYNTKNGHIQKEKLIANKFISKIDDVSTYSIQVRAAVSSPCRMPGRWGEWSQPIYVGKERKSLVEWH", "assay": "SPR, Biacore T200; mouse IL-5Rα-Fc captured on anti-human IgG (Fc); cm1B12 as analyte; bivalent analyte model", "description": "The binding activity of the cm1B12 antibody to mouse IL-5Rα-Fc was analyzed using Biacore T200. Anti-Human IgG (Fc) was immobilized at about 9000 RU onto CM5 sensor chip (GE Healthcare) using Human Antibody Capture Kit (GE Healthcare) according to the attached instruction. Mouse IL-5Rα-Fc (R&D Systems Inc.) dissolved at 1 μg/mL in HBS-EP(+) was captured as a ligand at a flow rate of 30 μL/min for 20 seconds. Then, the cm1B12 antibody serially diluted into concentrations of 1000.00, 333.33, 111.11, 37.04, 12.35, and 4.12 ng/mL was added thereto as an analyte by the multicycle method.\nThe operation was performed under conditions involving a flow rate of 30 μL/min, and a contact time and a dissociation time of 120 seconds and 600 seconds, respectively. The analysis was carried out using Biacore T200 Evaluation software in the Surface bound and Bivalent Analyte mode."}, "[2]": {"molecular_target": "T2, mouse IL-5Rα expressed on cells (Ba/F3 cells stably expressing mouse IL-5Rα); Expi293F cells transiently … (mouse, UniProt P21183 18-415)", "T2 construct": "whole, on cells; also called IL-5Rα-expressing Ba/F3 cells; IL5Ra-expressing Ba/F3 cells", "T2 sequence (looked up)": "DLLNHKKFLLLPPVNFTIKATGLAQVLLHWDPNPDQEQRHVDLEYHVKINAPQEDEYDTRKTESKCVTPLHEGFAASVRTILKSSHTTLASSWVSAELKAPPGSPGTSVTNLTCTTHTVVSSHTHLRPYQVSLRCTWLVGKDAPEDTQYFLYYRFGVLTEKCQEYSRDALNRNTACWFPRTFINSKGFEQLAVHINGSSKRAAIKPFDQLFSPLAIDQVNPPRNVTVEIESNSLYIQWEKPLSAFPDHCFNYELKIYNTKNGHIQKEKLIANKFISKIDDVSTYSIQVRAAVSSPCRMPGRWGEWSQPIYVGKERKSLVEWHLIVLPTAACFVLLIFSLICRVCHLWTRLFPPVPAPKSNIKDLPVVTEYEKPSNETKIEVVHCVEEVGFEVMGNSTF", "assay": "flow cytometry on mouse IL-5Rα-expressing Ba/F3 cells, detected with Alexa Fluor 647 goat anti-mouse IgG (H+L), geometric mean fluorescence; parental Ba/F3 cells as negative control", "description": "Ba/F3 cells or IL-5Rα-expressing Ba/F3 cells were suspended at a cell density of 1×10⁶ cells/mL in FACS buffer 1. The cell suspension was inoculated at 100 μL/well ([…]) to a 96-well U-form plate. The cm1B12 antibody was diluted into final concentrations of 0.0003, 0.001, 0.003, 0.01, 0.03, 0.1, 0.3, 1, 3, and 10 μg/mL with FACS buffer 1, added at 100 μL/well, and reacted for 1 hour on ice. After washing with FACS buffer 1, Alexa Fluor® 647 Goat anti-mouse IgG (H+L) (Life Technologies Corp.) diluted into 5 μg/mL with FACS buffer 1 was added at 100 μL/well and reacted for 1 hour on ice. After washing with FACS buffer 1, the fluorescence intensity (geometric mean) was measured using a flow cytometer Canto II (Becton, Dickinson and Company)."}}}
{"binder": "rat/mouse chimera type 1B12 antibody (antibody, V domains shown, also called cm1B12 antibody; cm1B12) VH: VQLVESDGGLVQPGRSLKLSCAASGFTFSDFYMAWVRQAPTKGLEWVATISYDGSSAYYRDSVKGRFTISRDNAKSTLYLQMDSLSSEDTATYYCARHDGYYPFDYWGQGVMVTVSS VL: DIRMTQSPASLSASLGETVNIECLASEDIYSDLAWYQQKPGKSPQLLIYDANSLQNGVPSRFSGSGSGTQYSLKINSLQSEDVATYFCQQYNNYWTFGGGTKLELK", "values": [{"measurement": "Kd", "setting": "[1]", "value": 0.0317, "unit": "nM"}, {"measurement": "koff", "setting": "[1]", "value": 0.000126, "unit": "s⁻¹"}, {"measurement": "kon", "setting": "[1]", "value": "4.1e+06", "unit": "M⁻¹ s⁻¹"}, {"measurement": "EC50 (read off the curve)", "setting": "[2]", "value": "~0.05", "unit": "µg/mL"}]}
